Data taken from patent publication US20010010923A1, “MODIFIED CARBOXYPEPTIDASE” (priority 1997, published 2001).
Marks after values point to notes of the source that are not given here.

Assays:
[1] = Transpeptidation of FA-Ala-OBzl with H-Leu-NH2, Table 3; assay type: biochemical; conditions: FA-Ala-OBzl 0.2 mM; H-Leu-NH2; pH 7.5
Procedure, shortened: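 Site-directed mutant enzymes were reacted with H-Leu-NH2 in 50 mM HEPES, 5 mM EDTA, pH 7.5, with acyl-donor substrate at 0.2 mM final. Products were quantified by C-18 RP-HPLC at 254 nm at about 35% and 80% substrate consumption. fa is aminolysis product over all products; famax is fa at nucleophile saturation, and KN(app) is the nucleophile concentration giving famax/2.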

[2] = Transpeptidation of Bz-G-A-R-A-R-X-OH at pH 7.5 at 50% substrate consumption, Table 4; assay type: biochemical; parameters: key to fa: fraction: aminolysis product / sum of all products formed; conditions: for Pmax (peak product yield) / fa: 375 mM H-Leu-NH2
Procedure, shortened: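 Transamidation was performed by dissolving the H-Leu-NH2 nucleophile in 50 mM HEPES with 5 mM EDTA at pH 7.5, then adding the Bz-G-A-R-A-R-X-OH peptide substrate in methanol followed by enzyme. Aliquots were quenched in 1% trifluoroacetic acid and analysed by C-18 reverse-phase HPLC at 254 nm. The fraction of aminolysis was the aminolysis product divided by all products formed.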

[3] = Transpeptidation of Bz-G-A-R-A-R-A-OH (arginine at P1) with H-Leu-NH2, Table 1; assay type: biochemical; conditions: [N] 375 mM H-Leu-NH2; 2mM substrate; pH 7.5; [E] 0.1 mg/mL
Experimental: The mutant carboxypeptidase enzvmes used in these studies were produced by site-directed mutagenesis, essentially following the procedures described in published PCT Patent Application No. WO 95/20039. In general, oligonucleotides synthesized to encode the amino acid substitution were used to produce the mutant enzymes.
Transamidation reactions were carried out generally as described in PCT Application WO 95/20039. In general, the method included dissolving the nucleophile (H-Leu-NH2, unless otherwise indicated) in 50 mM HEPES, 5 mM EDTA and adjusting the pH to 7.5, 5 μl of peptide substrate (8 mM Bz-G-A-R-A-R-A-OH, unless otherwise indicated, in methanol) was added to 190 μl nucleophile solution followed by 5 μl enzyme, […]
During the reaction, 20 μl aliquots were removed from the reaction mixture and added to 50 μl 1% trifluoroacetic acid to quench the reaction. The reactant composition was determined by HPLC using a Waters HPLC equipped with a C-18 Waters Novapac 4μ reverse phase column and various gradients of acetonitrile in 0.1% trifluoroacetic acid. The separation was monitored at 254 nm allowing the direct quantification of the products from the integrated peak areas. The composition of the reaction mixture was determined at least twvice during the reaction, the first when 20-50% (preferably 35%) of the substrate had been consumed in the reaction and the second time when 50-90% (preferably 80%) of the peptide substrate had been consumed.
The reaction products were collected and identified by amino acid analysis after acid hydrolysis using a Pharmacia Alpha Plus analyzer. Further identification was obtained by co-chromatography of authentic standard compounds.
The fraction of aminolysis (fa) was expressed as the ratio between the formed aminolysis product and the sum of all products formed. Unconsumed substrate was disregarded in the calculations.

[4] = ratio of hydrolysis rates, background statement; cited from earlier work
[5] = Transpeptidation of FA-Ala-Xaa-OH with H-Gly-NH2, Table 2; assay type: biochemical; conditions: 1.9 M H-Gly-NH2, pH 7.5, room temperature
Procedure, shortened: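 Enzyme reacted with 0.2 mM peptide substrate and nucleophile in 50 mM HEPES, 5 mM EDTA, pH 7.5; aliquots quenched in 1% TFA. Products quantified by reverse-phase HPLC at 254 nm at two conversion points (20-50% and 50-90% substrate consumed). Fraction of aminolysis = aminolysis product over all products, ignoring unconsumed substrate.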

B1: Wild type: wild type (native) carboxypeptidase Y (protein, UniProt P00729 112-532, looked up)
Carboxypeptidase Y: KIKDPKILGIDPNVTQYTGYLDVEDEDKHFFFWTFESRNDPAKDPVILWLNGGPGCSSLTGLFFELGPSSIGPDLKPIGNPYSWNSNATVIFLDQPVNVGFSYSGSSGVSNTVAAGKDVYNFLELFFDQFPEYVNKGQDFHIAGESYAGHYIPVFASEILSHKDRNFNLTSVLIGNGLTDPLTQYNYYEPMACGEGGEPSVLPSEECSAMEDSLERCLGLIESCYDSQSVWSCVPATIYCNNAQLAPYQRTGRNVYDIRKDCEGGNLCYPTLQDIDDYLNQDYVKEAVGAEVDHYESCNFDINRNFLFAGDWMKPYHTAVTDLLNQDLPILVYAGDKDFICNWLGNKAWTDVLPWKYDEEFASQKVRNWTASITDEVAGEVKSYKHFTYLRVFNGGHMVPFDVPENALSMVNEWIHGGFSL
[1]
  fa: 0.95^a
[2]; leaving group A
  Pmax (peak product yield): 0
[2]; leaving group A, 50% substrate consumption
  fa: <0.05
[2]; leaving group A, 50% substrate consumption, 375 mM H-Leu-NH2, 2 mM substrate, [E] 0.1 mg/mL
  t(min): ca. 110000 min
[2]; leaving group I
  Pmax (peak product yield): 0
[2]; leaving group I, 50% substrate consumption
  fa: <0.05
[2]; leaving group L
  Pmax (peak product yield): 0
[2]; leaving group L, 50% substrate consumption
  fa: <0.05
[2]; leaving group M
  Pmax (peak product yield): 0
[2]; leaving group M, 50% substrate consumption
  fa: <0.05
[2]; leaving group V
  Pmax (peak product yield): 0
[2]; leaving group V, 50% substrate consumption
  fa: <0.05
[3]
  fa (fraction of aminolysis): 0.05
[4]
  FA-Arg-Ala-OH hydrolyzed more slowly than FA-Leu-Ala-OH: about 500 times
[5]; FA-Ala-Ala-OH 0.2 mM
  Fraction of aminolysis (fa), P1' Ala: 0.90
[5]; FA-Ala-Leu-OH 0.2 mM
  Fraction of aminolysis (fa), P1' Leu: 0.20
[5]; FA-Ala-Met-OH 0.2 mM
  Fraction of aminolysis (fa), P1' Met: 0.18
[5]; FA-Ala-Phe-OH 0.2 mM
  Fraction of aminolysis (fa), P1' Phe: 0.04
[5]; FA-Ala-Val-OH 0.2 mM
  Fraction of aminolysis (fa), P1' Val: 0.16
